Here are results for one substance from US11254722B2, “Recombinant proteins and uses thereof” (ACADEMIA SINICA, priority 2017, dated 2022).

Series [1] in a line: Pharmacokinetics in mice, serum by Fc ELISA. The series is classed as in vivo. The protocol: Grenier high binding ELISA plates were coated with 1 ug/ml goat anti-human Fc antibody (Jackson Immunoresearch) in PBS overnight, and then blocked with Assay Buffer (Invitrogen). Plates were incubated for 2 hours with Chimera or human Fc (Jackson Immunoresearch) as standard; followed by HRP-conjugated anti-human Fc antibody (Jackson Immunoresearch) for 60 minutes. HRP substrate, tetramethyl benzidine, was added; the reaction was stopped with 2 N […], and then the plate was read at 450 nm.
Mice were injected subcutaneously with 100 ug chimera 56662 (4 mg/kg). Two mice per group were used. Serum samples were taken at 0, 4, 24, 48, 72 hours after injection. The concentration of 56662 in serum was determined by use of the hu fc ELISA.
Serum half-life was measured in mice. 100 μg IGFBP3-Fc or 56662 (4 mg/kg) was injected subcutaneously and mouse serum was harvested at 0, 4, 24, 48, 72 hours after injection. Chimera concentration in serum was measured with the Fc ELISA. At 24 hours, the concentration of 56662 was over 2 μg/ml (FIG. 28), and the serum half-time was estimated to be about 43 hours.

Another series relates to hep3B cells. In words: hep3B proliferation assay. The format is cell-based, human. As to conditions: hep3B. A digest of the protocol: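 Cells seeded at 1,000 to 6,000 per well in DMEM/F12 with 0.2% BSA and 10 ug/ml transferrin. Inhibitors added 16-20 h after plating; IGF-1 or other growth factors at plating or 16-20 h later. After 3 to 4 days, growth read by Alamar blue fluorescence at 544/590 nm after 4 to 6 h.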

A further series relates to HUVEC cells. Nature of the series: HUVEC proliferation assay. The following applies: HGF-induced, HUVEC. The format is cell-based. A digest of the protocol: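 HUVEC, 5,000 per well, plated on poly-L-lysine in M199 with 1% FBS and HEPES. After 3 to 4 days of culture, growth read by Alamar blue incubation for 4 to 6 hours, fluorescence (RFU) at 544/590 nm.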

As to “56662: IGFBP3-Fc, SEQ ID NO: 7; unmodified IGFBP3 fused with the IgG Fc portion [compound 56662]”, the serum half-life in series [1] (estimated) is 20 to 40 h. For the same substance, the “concentration in serum at 24 hours” value in series [1] (mice, 100 μg (4 mg/kg) subcutaneously, FIG. 28) is recorded as “over 2 μg/ml”. Moreover, the serum half-time entry in series [1] (mice, 100 μg (4 mg/kg) subcutaneously, estimated) is given as “about 43 hours”. The “In vitro inhibition of proliferation, HGF” value is reported as “yes (hep3B, HUVEC)” in the series with hep3B cells (HGF-induced) and “yes (hep3B, HUVEC)” in the series on HUVEC cells. Moreover, the EC50 in the series on hep3B cells (FIG. 11C, read-out: ECK for FBS-induced proliferation) was 201 nM.
